We go through 3 molecules from article PMC8948244, “Pumilio protects Xbp1 mRNA from regulated Ire1-dependent decay”.

The target of data set [1] is T1, hPUM1-HD (Pum-HD domain of human PUM1) (Homo sapiens, UniProt Q14671 828-1168). The data set can be described thus: EMSA; 100-300 nM protein, 10 nM probe; 10 mM Hepes/KOH pH 7.4, 50 mM KCl, 3 mM MgCl2, 1 mM EDTA, 0.1 mg/ml yeast tRNA, 2 mM DTT, 0.01% Tween-20, 0.2 U RNasin, 5% glycerol, 20 µl; 1 h on ice; 6% native gel, 0.5x TBE, room temperature. Particulars: protein: recombinant; label: 3' biotin-TEG; single strand. A general note: In EMSA bound probe runs differently from free probe, usually more slowly.

In data set [2] the target is T1, hPUM1-HD (Pum-HD domain of human PUM1). Put plainly: competition; EMSA; 5x, 10x, 50x excess over biotin-labeled WT probe; shifted band disappeared; 10 mM Hepes/KOH pH 7.4, 50 mM KCl, 3 mM MgCl2, 1 mM EDTA, 0.1 mg/ml yeast tRNA, 2 mM DTT, 0.01% Tween-20, 0.2 U RNasin, 5% glycerol, 20 µl; 1 h on ice; 6% native gel, 0.5x TBE, room temperature. The note with it: protein: recombinant; single strand.

Data set [3] shares this target. The data set can be described thus: competition; EMSA; 5x, 10x, 50x excess (source data label: 25x) over biotin-labeled WT probe; no effect; 10 mM Hepes/KOH pH 7.4, 50 mM KCl, 3 mM MgCl2, 1 mM EDTA, 0.1 mg/ml yeast tRNA, 2 mM DTT, 0.01% Tween-20, 0.2 U RNasin, 5% glycerol, 20 µl; 1 h on ice; 6% native gel, 0.5x TBE, room temperature. The note with it: protein: recombinant; single strand.

T1 sequence (Q14671 828-1168): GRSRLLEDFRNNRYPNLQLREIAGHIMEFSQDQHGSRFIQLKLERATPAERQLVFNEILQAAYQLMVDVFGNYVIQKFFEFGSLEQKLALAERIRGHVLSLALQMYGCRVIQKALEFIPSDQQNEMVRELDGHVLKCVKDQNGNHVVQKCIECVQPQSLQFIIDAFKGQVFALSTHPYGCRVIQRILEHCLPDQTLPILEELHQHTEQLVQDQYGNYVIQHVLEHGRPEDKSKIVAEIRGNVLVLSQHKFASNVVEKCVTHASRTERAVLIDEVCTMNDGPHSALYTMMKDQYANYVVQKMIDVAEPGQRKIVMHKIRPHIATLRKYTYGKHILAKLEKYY

B1: pum1site-wt-3BioTEG (Xbp1 3'UTR PRE1) (ssRNA)
RNA: GAUAGGCUGUACAUAAAUUCAUAAUCG
Take B1: in data set [1], the binding result was “binds”.

B2: pum1site-wt (unlabeled competitor) (ssRNA)
RNA: GAUAGGCUGUACAUAAAUUCAUAAUCG
As to B2, the binding result in data set [2] is “binds”.

B3: pum1site-mut (unlabeled competitor, UGUA to ACAA) (ssRNA)
RNA: GAUAGGCACAACAUAAAUUCAUAAUCG
Consider B3, for which the binding result in data set [3] is given as “no binding”.
